Test results published in the supplement of paper PMC10065799, “High-throughput profiling of sequence recognition by tyrosine kinases and SH2 domains using bacterial peptide display” (eLife, 2023).

Target: Hck (UniProt P08631)
Assay: phosphorylation enrichment, bacterial display (enrichment ratio); higher = better substrate or ligand; peptides without Tyr show the background
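Further: 11-residue human phosphosite peptides and single-mutation variants displayed on the E. coli surface, counted by deep sequencing, each peptide's frequency after selection divided by its frequency in the unselected input library; frequency after pTyr selection over input frequency; kinase dosed for 20-30% of maximal phosphorylation in three min.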

Sequence of Hck (P08631 whole entry, looked up): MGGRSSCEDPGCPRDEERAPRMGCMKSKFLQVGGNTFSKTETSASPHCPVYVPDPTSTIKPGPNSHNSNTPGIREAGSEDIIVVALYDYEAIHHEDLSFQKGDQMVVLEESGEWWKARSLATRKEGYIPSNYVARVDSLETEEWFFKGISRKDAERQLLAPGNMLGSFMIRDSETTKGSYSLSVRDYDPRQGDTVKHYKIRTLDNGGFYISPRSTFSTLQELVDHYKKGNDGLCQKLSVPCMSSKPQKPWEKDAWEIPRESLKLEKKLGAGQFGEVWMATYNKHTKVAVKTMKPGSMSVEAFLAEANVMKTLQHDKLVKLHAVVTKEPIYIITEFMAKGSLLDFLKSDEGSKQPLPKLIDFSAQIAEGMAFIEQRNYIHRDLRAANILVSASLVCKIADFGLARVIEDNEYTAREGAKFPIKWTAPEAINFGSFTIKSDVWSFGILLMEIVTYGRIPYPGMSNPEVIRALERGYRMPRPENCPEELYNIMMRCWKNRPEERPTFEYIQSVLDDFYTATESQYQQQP

Row | Sequence | phosphorylation enrichment
1 | TYGVLYKARNK [CDK2_Y19_V18L] | 2.86
2 | FADIAYNYRDG [PAH_Y166_H170D] | 0.352
3 | RLLREYQELMN [KRT75_Y434] | 0.458
4 | ETCLAYREKRI [TEKT1_Y118] | 0.49
5 | RDMNACIRPSP [MMAA_Y207_Y207C] | 0.798
6 | RVQQIYSDSDL [MIB1_Y376] | 3.68
7 | SGVVPYEPPEV [TP53_Y220_V216G] | 0.524
8 | LFSLGYHQSRW [GANAB_Y396] | 0.855
9 | NQNIGYELGHR [KCNN3_Y268_K269E] | 0.37
10 | IRQDDYESLKE [MTR_Y921_H920D] | 0.571
11 | GVLKEYGEKVL [CPS1_Y529_V531E] | 0.422
12 | MILSAYALGGL [CPS1_Y590_R587L] | 0.497
13 | LAIELYVVVCK [RHO_Y136_R135L] | 0.861
14 | YALAEYTEVKT [ALDH1A3_Y497] | 0.724
15 | ADARMYGVLPR [PLP1_Y207_W212R] | 3.23
16 | LEQRPYRRGSE [KCNJ12_Y427_E430G] | 0.523
17 | CTTIHYNFVCN [TP53_Y234_M237V_YF] | 0.54

Row | Sequence | phosphorylation enrichment
18 | GGDVIYKGFED [NFU1_Y194] | 0.951
19 | LRSRVYEVPVE [SLC26A3_Y756_N753S] | 1.25
20 | KSELAYEIFDK [MYOM2_Y1024] | 0.951
21 | CTTIHYNFMGN [TP53_Y234_C238G_YF] | 0.478
22 | AVLVQYYMEHH [PTPN11_Y80_E76V] | 0.875
23 | RNYGTYTAGLS [RHBDD1_Y264_D262G] | 2.76
24 | MGGSLYFSYPD [HIKESHI_Y55_V54L] | 3.45
25 | HAVFVYDICHV [TWNK_Y508_YF] | 2.8
26 | LARNMYDKEYY [MET_Y1230_D1228N] | 0.605
27 | LLANAYIFDVQ [L1CAM_Y418_V421D_YF] | 0.598
28 | RLLRGHDQFAF [HLA-B_Y137_YF] | 0.405
29 | IDFARYWHGND [MMP11_Y162_D166N] | 0.479
30 | EVEFEYPFRLH [SYP_Y73] | 0.509
31 | FRQNGYIPGSN [PCDHGA1_Y895_V894G_YF] | 0.392
32 | DAVKHYMQFRK [CNGA2_Y395] | 0.555
33 | YGPPQYNIQYS [ERBB2IP_Y977] | 0.72

Target: Jak2 (UniProt O60674)
Assay: as above

Sequence of Jak2 (O60674 whole entry, looked up): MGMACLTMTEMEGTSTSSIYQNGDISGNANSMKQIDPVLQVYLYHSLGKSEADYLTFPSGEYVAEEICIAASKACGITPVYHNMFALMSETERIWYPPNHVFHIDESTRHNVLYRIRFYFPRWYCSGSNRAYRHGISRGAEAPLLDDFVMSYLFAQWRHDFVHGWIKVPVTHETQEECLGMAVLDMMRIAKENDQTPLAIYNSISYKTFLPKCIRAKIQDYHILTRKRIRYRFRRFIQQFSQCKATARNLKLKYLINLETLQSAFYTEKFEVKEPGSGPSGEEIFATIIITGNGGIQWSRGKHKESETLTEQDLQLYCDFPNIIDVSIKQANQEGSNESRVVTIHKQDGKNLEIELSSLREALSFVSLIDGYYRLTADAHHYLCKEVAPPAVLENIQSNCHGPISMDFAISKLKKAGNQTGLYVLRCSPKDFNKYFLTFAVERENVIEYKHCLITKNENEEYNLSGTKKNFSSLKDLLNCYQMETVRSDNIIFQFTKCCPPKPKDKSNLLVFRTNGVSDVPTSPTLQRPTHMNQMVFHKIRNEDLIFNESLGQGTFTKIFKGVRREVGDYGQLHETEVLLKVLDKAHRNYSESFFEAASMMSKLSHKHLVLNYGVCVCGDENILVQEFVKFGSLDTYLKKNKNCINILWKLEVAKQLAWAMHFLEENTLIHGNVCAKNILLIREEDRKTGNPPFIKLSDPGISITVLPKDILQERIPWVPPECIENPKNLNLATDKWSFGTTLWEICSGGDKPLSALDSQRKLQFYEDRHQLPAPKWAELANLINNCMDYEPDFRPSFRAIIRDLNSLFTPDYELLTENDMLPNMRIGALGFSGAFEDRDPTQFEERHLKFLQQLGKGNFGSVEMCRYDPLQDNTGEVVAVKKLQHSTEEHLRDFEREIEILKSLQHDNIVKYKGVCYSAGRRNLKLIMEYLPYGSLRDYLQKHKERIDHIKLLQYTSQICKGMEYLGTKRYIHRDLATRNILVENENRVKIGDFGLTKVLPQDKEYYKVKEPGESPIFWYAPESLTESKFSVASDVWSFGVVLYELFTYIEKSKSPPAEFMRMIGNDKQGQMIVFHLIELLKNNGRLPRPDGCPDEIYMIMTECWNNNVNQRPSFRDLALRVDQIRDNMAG

Row | Sequence | phosphorylation enrichment
34 | TYGVLYKARNK [CDK2_Y19_V18L] | 0.565
35 | FADIAYNYRDG [PAH_Y166_H170D] | 1.04
36 | RLLREYQELMN [KRT75_Y434] | 1.11
37 | ETCLAYREKRI [TEKT1_Y118] | 0.693
38 | RDMNACIRPSP [MMAA_Y207_Y207C] | 0.581
39 | RVQQIYSDSDL [MIB1_Y376] | 0.902
40 | SGVVPYEPPEV [TP53_Y220_V216G] | 0.986
41 | LFSLGYHQSRW [GANAB_Y396] | 0.767
42 | NQNIGYELGHR [KCNN3_Y268_K269E] | 0.348
43 | IRQDDYESLKE [MTR_Y921_H920D] | 1.13
44 | GVLKEYGEKVL [CPS1_Y529_V531E] | 0.573
45 | MILSAYALGGL [CPS1_Y590_R587L] | 0.928
46 | LAIELYVVVCK [RHO_Y136_R135L] | 2.07
47 | YALAEYTEVKT [ALDH1A3_Y497] | 0.812
48 | ADARMYGVLPR [PLP1_Y207_W212R] | 0.398
49 | LEQRPYRRGSE [KCNJ12_Y427_E430G] | 0.576
50 | CTTIHYNFVCN [TP53_Y234_M237V_YF] | 1.01

Row | Sequence | phosphorylation enrichment
51 | GGDVIYKGFED [NFU1_Y194] | 0.924
52 | LRSRVYEVPVE [SLC26A3_Y756_N753S] | 0.795
53 | KSELAYEIFDK [MYOM2_Y1024] | 1.24
54 | CTTIHYNFMGN [TP53_Y234_C238G_YF] | 0.73
55 | AVLVQYYMEHH [PTPN11_Y80_E76V] | 0.821
56 | RNYGTYTAGLS [RHBDD1_Y264_D262G] | 0.74
57 | MGGSLYFSYPD [HIKESHI_Y55_V54L] | 2.11
58 | HAVFVYDICHV [TWNK_Y508_YF] | 1.65
59 | LARNMYDKEYY [MET_Y1230_D1228N] | 0.84
60 | LLANAYIFDVQ [L1CAM_Y418_V421D_YF] | 1.73
61 | RLLRGHDQFAF [HLA-B_Y137_YF] | 1.07
62 | IDFARYWHGND [MMP11_Y162_D166N] | 0.564
63 | EVEFEYPFRLH [SYP_Y73] | 1.5
64 | FRQNGYIPGSN [PCDHGA1_Y895_V894G_YF] | 0.544
65 | DAVKHYMQFRK [CNGA2_Y395] | 0.44
66 | YGPPQYNIQYS [ERBB2IP_Y977] | 0.655

Target: MERTK (UniProt Q12866)
Assay: as above

Sequence of MERTK (Q12866 whole entry, looked up): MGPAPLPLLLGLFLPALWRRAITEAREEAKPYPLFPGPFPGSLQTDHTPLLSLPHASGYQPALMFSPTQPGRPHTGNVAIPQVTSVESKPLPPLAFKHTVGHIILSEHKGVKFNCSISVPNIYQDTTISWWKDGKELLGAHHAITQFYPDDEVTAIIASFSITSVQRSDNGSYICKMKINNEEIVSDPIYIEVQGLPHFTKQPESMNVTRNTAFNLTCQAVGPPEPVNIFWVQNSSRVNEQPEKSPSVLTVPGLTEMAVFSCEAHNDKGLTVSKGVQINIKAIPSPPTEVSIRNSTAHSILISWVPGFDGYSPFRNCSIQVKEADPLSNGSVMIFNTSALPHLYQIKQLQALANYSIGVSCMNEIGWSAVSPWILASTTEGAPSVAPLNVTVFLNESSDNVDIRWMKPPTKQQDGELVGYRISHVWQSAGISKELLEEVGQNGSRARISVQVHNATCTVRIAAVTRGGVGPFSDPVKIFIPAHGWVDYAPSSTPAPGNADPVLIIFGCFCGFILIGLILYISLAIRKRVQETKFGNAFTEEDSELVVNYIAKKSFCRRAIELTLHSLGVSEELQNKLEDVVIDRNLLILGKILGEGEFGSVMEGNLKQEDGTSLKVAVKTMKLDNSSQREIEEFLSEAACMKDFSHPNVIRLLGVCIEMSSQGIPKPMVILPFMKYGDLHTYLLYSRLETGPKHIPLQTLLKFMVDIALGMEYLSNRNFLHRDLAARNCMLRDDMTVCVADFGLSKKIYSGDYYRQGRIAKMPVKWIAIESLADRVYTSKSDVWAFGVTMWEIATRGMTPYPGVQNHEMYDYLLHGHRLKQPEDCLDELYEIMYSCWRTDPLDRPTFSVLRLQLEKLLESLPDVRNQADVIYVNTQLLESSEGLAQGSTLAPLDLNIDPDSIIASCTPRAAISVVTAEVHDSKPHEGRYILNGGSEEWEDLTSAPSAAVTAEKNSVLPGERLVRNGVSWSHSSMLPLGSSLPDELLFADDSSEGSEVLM

Row | Sequence | phosphorylation enrichment
67 | TYGVLYKARNK [CDK2_Y19_V18L] | 0.689
68 | FADIAYNYRDG [PAH_Y166_H170D] | 0.363
69 | RLLREYQELMN [KRT75_Y434] | 0.376
70 | ETCLAYREKRI [TEKT1_Y118] | 0.508
71 | RDMNACIRPSP [MMAA_Y207_Y207C] | 0.62
72 | RVQQIYSDSDL [MIB1_Y376] | 4.58
73 | SGVVPYEPPEV [TP53_Y220_V216G] | 0.443
74 | LFSLGYHQSRW [GANAB_Y396] | 0.649
75 | NQNIGYELGHR [KCNN3_Y268_K269E] | 0.276
76 | IRQDDYESLKE [MTR_Y921_H920D] | 0.474
77 | GVLKEYGEKVL [CPS1_Y529_V531E] | 0.415
78 | MILSAYALGGL [CPS1_Y590_R587L] | 0.436
79 | LAIELYVVVCK [RHO_Y136_R135L] | 0.597
80 | YALAEYTEVKT [ALDH1A3_Y497] | 0.652
81 | ADARMYGVLPR [PLP1_Y207_W212R] | 0.405
82 | LEQRPYRRGSE [KCNJ12_Y427_E430G] | 0.442
83 | CTTIHYNFVCN [TP53_Y234_M237V_YF] | 0.508

Row | Sequence | phosphorylation enrichment
84 | GGDVIYKGFED [NFU1_Y194] | 0.466
85 | LRSRVYEVPVE [SLC26A3_Y756_N753S] | 1.66
86 | KSELAYEIFDK [MYOM2_Y1024] | 4.45
87 | CTTIHYNFMGN [TP53_Y234_C238G_YF] | 0.532
88 | AVLVQYYMEHH [PTPN11_Y80_E76V] | 0.89
89 | RNYGTYTAGLS [RHBDD1_Y264_D262G] | 0.55
90 | MGGSLYFSYPD [HIKESHI_Y55_V54L] | 7.06
91 | HAVFVYDICHV [TWNK_Y508_YF] | 2.62
92 | LARNMYDKEYY [MET_Y1230_D1228N] | 0.358
93 | LLANAYIFDVQ [L1CAM_Y418_V421D_YF] | 0.718
94 | RLLRGHDQFAF [HLA-B_Y137_YF] | 0.34
95 | IDFARYWHGND [MMP11_Y162_D166N] | 0.372
96 | EVEFEYPFRLH [SYP_Y73] | 0.396
97 | FRQNGYIPGSN [PCDHGA1_Y895_V894G_YF] | 0.393
98 | DAVKHYMQFRK [CNGA2_Y395] | 0.397
99 | YGPPQYNIQYS [ERBB2IP_Y977] | 0.602

System: c-Abl (mouse)
Assay: as above

Row | Sequence | phosphorylation enrichment
100 | TYGVLYKARNK [CDK2_Y19_V18L] | 0.519
101 | FADIAYNYRDG [PAH_Y166_H170D] | 0.545
102 | RLLREYQELMN [KRT75_Y434] | 0.67
103 | ETCLAYREKRI [TEKT1_Y118] | 0.503
104 | RDMNACIRPSP [MMAA_Y207_Y207C] | 0.565
105 | RVQQIYSDSDL [MIB1_Y376] | 1.31
106 | SGVVPYEPPEV [TP53_Y220_V216G] | 0.659
107 | LFSLGYHQSRW [GANAB_Y396] | 0.638
108 | NQNIGYELGHR [KCNN3_Y268_K269E] | 0.425
109 | IRQDDYESLKE [MTR_Y921_H920D] | 1
110 | GVLKEYGEKVL [CPS1_Y529_V531E] | 0.648
111 | MILSAYALGGL [CPS1_Y590_R587L] | 0.736
112 | LAIELYVVVCK [RHO_Y136_R135L] | 2.59
113 | YALAEYTEVKT [ALDH1A3_Y497] | 0.614
114 | ADARMYGVLPR [PLP1_Y207_W212R] | 0.481
115 | LEQRPYRRGSE [KCNJ12_Y427_E430G] | 0.594
116 | CTTIHYNFVCN [TP53_Y234_M237V_YF] | 0.754

Row | Sequence | phosphorylation enrichment
117 | GGDVIYKGFED [NFU1_Y194] | 0.663
118 | LRSRVYEVPVE [SLC26A3_Y756_N753S] | 0.719
119 | KSELAYEIFDK [MYOM2_Y1024] | 0.915
120 | CTTIHYNFMGN [TP53_Y234_C238G_YF] | 0.699
121 | AVLVQYYMEHH [PTPN11_Y80_E76V] | 0.708
122 | RNYGTYTAGLS [RHBDD1_Y264_D262G] | 0.629
123 | MGGSLYFSYPD [HIKESHI_Y55_V54L] | 1.16
124 | HAVFVYDICHV [TWNK_Y508_YF] | 1.47
125 | LARNMYDKEYY [MET_Y1230_D1228N] | 0.565
126 | LLANAYIFDVQ [L1CAM_Y418_V421D_YF] | 0.896
127 | RLLRGHDQFAF [HLA-B_Y137_YF] | 0.716
128 | IDFARYWHGND [MMP11_Y162_D166N] | 0.504
129 | EVEFEYPFRLH [SYP_Y73] | 0.735
130 | FRQNGYIPGSN [PCDHGA1_Y895_V894G_YF] | 0.499
131 | DAVKHYMQFRK [CNGA2_Y395] | 0.54
132 | YGPPQYNIQYS [ERBB2IP_Y977] | 0.858
